Measured values taken from patent US20090196872A1 (KIRIN BEER, published 2009).

Assays:
[1] = molecular target: M2HTGEKS peptide (influenza A virus); experiment: peptide ELISA, grade relative to wild-type M2
Method: (§1) ELISA: Antibody titers and antibody specificity as well as antibody production by hybridomas were determined by ELISA. […] After washing twice with PBS/0.1% Tween 20, plates were blocked with PBS/1% BSA (Sigma, St. Louis, Mo.) at 37° C. for 30 min., the antibody or serum was added to the wells and the plates were incubated at 37° C. for 1 hr. After washing four times, diluted HRP conjugated goat anti-human Immunoglobulin gamma chain specific antibody (Jackson Immunoresearch Laboratory, West Grove, Pa.) was added to the wells and incubated for 1 hr at 37° C. After washing four times, TMB substrate solution (DAKO, CA) was added and incubated for 30 min at room temperature. The optical density at 450 nm was measured by a microplate reader.

[2] = molecular target: M2TDGEKS peptide (influenza A virus); experiment: peptide ELISA, grade relative to wild-type M2
Method: as §1

[3] = molecular target: M2EG peptide (influenza A virus); experiment: peptide ELISA, grade relative to wild-type M2
Method: as §1

[4] = molecular target: M2KGENS peptide (influenza A virus); experiment: peptide ELISA, grade relative to wild-type M2
Method: as §1

[5] = molecular target: M2TGS peptide (influenza A virus); experiment: peptide ELISA, grade relative to wild-type M2
Method: as §1

[6] = molecular target: M2TGEK peptide (influenza A virus); experiment: peptide ELISA, grade relative to wild-type M2
Method: as §1

[7] = molecular target: M2LGS peptide (influenza A virus); experiment: peptide ELISA, grade relative to wild-type M2
Method: as §1

[8] = molecular target: T1, bovine serum albumin (bovine, UniProt P02769 25-607); experiment: ELISA; positive = more than 2-fold OD450 of control
T1 construct: carrier for immunization

[9] = molecular target: T2, OVA (UniProt P01012 2-386); experiment: as above
T2 construct: also called ovalbumin
T2 sequence: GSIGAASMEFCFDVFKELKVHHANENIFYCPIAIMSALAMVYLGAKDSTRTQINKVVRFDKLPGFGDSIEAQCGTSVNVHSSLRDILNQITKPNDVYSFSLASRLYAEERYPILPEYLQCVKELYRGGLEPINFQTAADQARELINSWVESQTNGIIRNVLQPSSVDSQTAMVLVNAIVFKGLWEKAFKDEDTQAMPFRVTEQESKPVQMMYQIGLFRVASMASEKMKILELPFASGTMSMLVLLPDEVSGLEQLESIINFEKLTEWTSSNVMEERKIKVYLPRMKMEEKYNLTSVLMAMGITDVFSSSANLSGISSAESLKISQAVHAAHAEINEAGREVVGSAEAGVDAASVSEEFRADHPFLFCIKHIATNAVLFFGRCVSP

[10] = molecular target: M2GHTGKS peptide (influenza A virus); experiment: peptide ELISA
Method: as §1

[11] = molecular target: T1, bovine serum albumin; experiment: ELISA

T1 sequence (P02769 25-607 limits assumed): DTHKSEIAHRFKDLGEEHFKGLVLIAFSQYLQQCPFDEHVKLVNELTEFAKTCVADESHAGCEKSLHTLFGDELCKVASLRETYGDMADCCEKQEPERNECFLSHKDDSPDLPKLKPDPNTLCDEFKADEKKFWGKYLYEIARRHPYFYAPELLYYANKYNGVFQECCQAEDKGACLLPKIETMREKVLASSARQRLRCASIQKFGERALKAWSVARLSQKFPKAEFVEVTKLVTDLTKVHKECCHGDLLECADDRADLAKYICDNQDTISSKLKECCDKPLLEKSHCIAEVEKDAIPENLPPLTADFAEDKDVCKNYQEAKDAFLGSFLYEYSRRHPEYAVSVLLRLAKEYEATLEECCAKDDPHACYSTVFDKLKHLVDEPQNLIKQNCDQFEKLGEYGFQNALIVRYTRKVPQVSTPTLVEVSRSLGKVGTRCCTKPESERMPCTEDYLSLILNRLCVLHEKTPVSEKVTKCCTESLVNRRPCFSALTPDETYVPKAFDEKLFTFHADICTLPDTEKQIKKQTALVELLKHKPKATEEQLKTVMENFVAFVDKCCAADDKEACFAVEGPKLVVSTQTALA

B1: human anti-M2 monoclonal antibody no. Z3G1 (recombinant IgG1 type Z3, CHO; ATCC PTA-5967) (antibody, V domains shown)
VH: QVQLVQSGAEVKKPGASVKVSCKASGYTFTSYGISWVRQAPGQGLEWMGWISAYNGNTNYAQKLQGRVTMTTDTSTSTAYMELRSLRSDDTAVYYCARAAAGGYFQHWGQGTLVTVSS
VL: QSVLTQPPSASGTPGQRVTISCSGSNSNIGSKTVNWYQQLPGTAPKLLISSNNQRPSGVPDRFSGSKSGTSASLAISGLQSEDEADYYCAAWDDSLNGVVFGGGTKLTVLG
- binding result [1]: binds
- binding result [2]: binds
- binding result [3]: binds
- binding result [4]: binds
- binding result [5]: binds
- binding result [6]: binds
- binding result [7]: binds
- binding result [8]: no binding
- binding result [9]: no binding
- binding result [10]: no binding (tested: <10% of binding to wild-type M2 peptide)

B2: human anti-M2 antibody Z3 (original, IgG3, hybridoma 113Z-3) (antibody, V domains shown)
VH: B1 VH
VL: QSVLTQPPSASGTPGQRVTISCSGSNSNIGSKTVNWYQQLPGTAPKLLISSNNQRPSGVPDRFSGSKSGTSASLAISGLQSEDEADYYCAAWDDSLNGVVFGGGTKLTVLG
- binding result [11]: no binding
